Data: paper PMC6114900, “Molecular basis for CesT recognition of type III secretion effectors in enteropathogenic Escherichia coli” (PLoS Pathogens, 2018)

What was measured:
[1] = biological target: T1, CesT^138 (no tag, co-expressed and co-purified with His6-Tir peptides) (enteropathogenic Escherichia coli (EPEC), UniProt P21244 2-138); experiment: pull-down; conditions: partners not purified
T1 construct: also called CesT^2-138

[2] = biological target: T2, CesT (no tag, co-expressed and co-purified with His6-Tir constructs) (enteropathogenic Escherichia coli (EPEC), UniProt P21244 1-156); experiment: SEC; conditions: both partners purified
T2 construct: also called full-length CesT
T2 sequence (P21244 whole entry): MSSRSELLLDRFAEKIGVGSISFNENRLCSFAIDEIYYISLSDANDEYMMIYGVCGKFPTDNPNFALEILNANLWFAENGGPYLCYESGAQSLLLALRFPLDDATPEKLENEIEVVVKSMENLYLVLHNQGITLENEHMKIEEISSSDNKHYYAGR

T1 sequence (P21244 2-138): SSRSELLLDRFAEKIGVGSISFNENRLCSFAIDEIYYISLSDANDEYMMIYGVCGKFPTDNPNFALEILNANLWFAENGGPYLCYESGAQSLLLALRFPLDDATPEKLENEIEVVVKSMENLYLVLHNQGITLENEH

B1: His6-Tir^32-80 (domain or fragment)
chain: GGTGHLISSTGALGSRSLFSPLRNSMADSVDSRDIPGLPTNPSRLAAAT
notes: not shown: His6, N-terminal, kept
[1]
  binding result: binds
[2]
  binding result: binds

B2: His6-Tir^23-80 (domain or fragment)
chain: PSQTDGAARGGTGHLISSTGALGSRSLFSPLRNSMADSVDSRDIPGLPTNPSRLAAAT
notes: as for B1
[2]
  binding result: binds

B3: His6-Tir^35-77 (domain or fragment)
chain: GHLISSTGALGSRSLFSPLRNSMADSVDSRDIPGLPTNPSRLA
notes: as for B1
[2]
  binding result: binds

B4: His6-Tir^490-550 (domain or fragment)
chain: SGSGPVTGRLIGTPGQGIQSTYALLANSGGLRLGMGGLTSGGESAVSSVNAAPTPGPVRFV
notes: also called C-terminal Tir peptide; not shown: His6, N-terminal, kept
[2]
  binding result: binds
